From US20240254233A1 (IMMUNEONCIA THERAPEUTICS, published 2024)

Key:
recombinant human CD47 = molecular target: T1, recombinant human CD47 (human, UniProt Q08722 19-139, limits assumed); assay: ELISA, recombinant human CD47 coated at 50 ng/well, anti-human IgG Fcγ-HRP detection
T1 construct: also called single ligand (CD47)

recombinant human PD-L1 = molecular target: T2, recombinant human PD-L1 (human, UniProt Q9NZQ7 19-238, limits assumed); assay: ELISA, recombinant human PD-L1 coated at 75 ng/well, anti-human IgG Fcγ-HRP detection
T2 construct: also called single ligand (PD-L1)
T2 sequence (Q9NZQ7 19-238 limits assumed): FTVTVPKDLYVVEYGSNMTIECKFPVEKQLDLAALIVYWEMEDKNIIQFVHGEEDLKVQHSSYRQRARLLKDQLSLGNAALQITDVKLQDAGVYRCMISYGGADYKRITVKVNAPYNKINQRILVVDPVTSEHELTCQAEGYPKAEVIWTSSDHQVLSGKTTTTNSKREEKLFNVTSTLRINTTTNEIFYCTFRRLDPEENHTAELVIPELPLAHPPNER

[1] = molecular target: T3, recombinant human CD47-fc (human, UniProt Q08722 19-139, limits assumed); assay: dual-ligand (bridging) ELISA: CD47-fc coated, antibody titrated, then PD-L1-his at 50 ng/well, anti-his-HRP detection
T3 construct: Coated at 50 ng/well in the dual-ligand ELISA
T3 sequence (Q08722 19-139 limits assumed): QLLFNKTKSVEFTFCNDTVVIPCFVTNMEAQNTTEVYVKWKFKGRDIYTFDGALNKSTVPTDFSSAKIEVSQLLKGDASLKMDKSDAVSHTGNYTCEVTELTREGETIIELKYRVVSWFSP

T1 sequence (Q08722 19-139 limits assumed): as above

Row | EC50 (recombinant human CD47) [ng/mL] | EC50 (recombinant human PD-L1) [ng/mL] | EC50 [1] [ng/mL] | Binder
1 | 4.09 | 7.24 | 17.4 | IMC-201 (bispecific antibody, human IgG1, lambda, also called Ab 1159.1) heavy: not shown light: QSALTQPASVSGSPGQSISISCTGTSSDVGGHNYVSWYQQHPGKAPKLMIYDVRNRPSGVSNRFSGSKSGSTASLTISGLQTEDEADYYCNSYTGSRTYVFGSGTKLTVLGQPKAAPSVTLFPPSSEELQANKATLVCLISDFYPGAVTVAWKADSSPVKAGVETTTPSKQSNNKYAASSYLSLTPEQWKSHRSYSCQVTHEGSTVEKTVAPTECS
2 |  | 0.989 |  | IMC-001 (antibody, V domains shown) VH: QMQLVQSGAEVKKPGSSVKVSCKASGGTFSSYAYSWVRQAPGQGLEWMGGIIPSFGTANYAQKFQGRVTITADESTSTAYMELSSLRSEDTAVYYCARGPIVATITPLDYWGQGTLVTVSS VL: SYVLTQPPSVSVAPGKTATIACGGENIGRKTVHWYQQKPGQAPVLVIYYDSDRPSGIPERFSGSNSGNTATLTISRVEAGDEADYYCLVWDSSSDHRIFGGGTKLTVL
3 | 2.77 |  |  | IMC-002 (antibody, V domains shown) VH: QVQLVQSGAEVKKPGASVKVSCKASGYTFTSYYMHWVRQAPGQGLEWMGIINPSGGSTSYAQKFQGRVTMTRDTSTSTVYMELSSLRSEDTAVYYCARSTLWVSEFDYWGQGTLVTVSS VL: QSALTQPASVSGSPGQSISISCTGTSSDVGGHNYVSWYQQHPGKAPKLMIYDVRNRPSGVSNRFSGSKSGSTASLTISGLQTEDEADYYCNSYTGSRTYVFGSGTKLTVLG
